Laboratory results reported in patent US20200085917A1 (UNIVERSITY OF PITTSBURGH OF THE COMMONWEALTH SYSTEM OF …, published 2020).
Blank lines part the entries; values can stand above or below the binder they belong to.

Target: T1, GST alone (UniProt P08515 1-218 = GST)
T1 construct: Negative control of the pull-downs; also called control GST
Experiment: GST pull-down, LC-MS/MS
Protocol: Extracts were spun at 14,000 r.p.m. at 4° C., and clarified supernatants were incubated with glutathione 4B Sepharose beads (GE Healthcare) at 4° C. overnight. The glutathione beads were then washed extensively with ice-cold TNE buffer, and bound proteins were subjected to SDS-PAGE followed by immunoblotting analysis. For the samples subjected to mass spectrometry, glutathione bead-bound proteins from equal amounts (600 μg) of mitochondria were further washed with high stringency RIPA buffer following TNE buffer wash to decrease nonspecific interaction. Proteins were then eluted from the glutathione beads in SDS sample buffer, separated by SDS-PAGE and stained with Coomassie. Proteins in the gel were digested with trypsin and analyzed by mass spectrometry (LC-MS/MS) at the Taplin Biological Mass Spectrometry Facility (Harvard Medical School, Boston, Mass.).

T1 sequence (P08515 whole entry): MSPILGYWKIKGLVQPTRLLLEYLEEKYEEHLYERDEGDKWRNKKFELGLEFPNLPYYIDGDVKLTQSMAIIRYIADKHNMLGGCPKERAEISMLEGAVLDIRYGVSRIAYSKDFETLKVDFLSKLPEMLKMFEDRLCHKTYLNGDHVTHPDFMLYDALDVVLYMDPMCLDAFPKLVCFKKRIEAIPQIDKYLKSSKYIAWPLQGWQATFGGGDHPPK

B1: Fis1_IPI:IPI00132217.1 (other, mouse, UniProt Q9CQ92 1-152, looked up)
chain: MEAVLNELVSVEDLKNFERKFQSEQAAGSVSKSTQFEYAWCLVRSKYNEDIRRGIVLLEELLPKGSKEEQRDYVFYLAVGNYRLKEYEKALKYVRGLLQTEPQNNQAKELERLIDKAMKKDGLVGMAIVGGMALGVAGLAGLIGLAVSKSKS
- binding result: no binding

B2: Cisd1_IPI:IPI00128346.1 (other, mouse, UniProt Q91WS0 1-108, looked up)
chain: MGLSSNSAVRVEWIAAVTFAAGTAALGYLAYKKFYAKENRTKAMVNLQIQKDNPKVVHAFDMEDLGDKAVYCRCWRSKKFPFCDGAHIKHNEETGDNVGPLIIKKKET
- binding result: no binding

B3: Isca2_IPI:IPI00120671.2 (other, mouse, UniProt Q9DCB8 9-154, looked up)
chain: LTAEAVRAVIPRRSGRLLAVFPRLLTRWETTSSIPEAGEGQIRLTDSCVQRLLEITEGSEFLRLQVEGGGCSGFQYKFSLDTVINPDDRVFEQGGARVVVDSDSLAFVKGAQVDFSQELIRSSFQVLNNPQAQQGCSCGSSFSVKV
- binding result: no binding

B4: Arf2_IPI:IPI00135730.1 (other, mouse, UniProt Q8BSL7 2-181, looked up)
chain: GNVFEKLFKSLFGKKEMRILMVGLDAAGKTTILYKLKLGEIVTTIPTIGFNVETVEYKNISFTVWDVGGQDKIRPLWRHYFQNTQGLIFVVDSNDRERVNEAREELTRMLAEDELRDAVLLVFVNKQDLPNAMNAAEITDKLGLHSLRQRNWYIQATCATSGDGLYEGLDWLSNQLKNQK
- binding result: no binding

Now from value to binder:

- binding result: no binding
B5: Prdx3_IPI:IPI00116192.1 (other, mouse, UniProt P20108 63-257, looked up)
chain: TPAVTQHAPYFKGTAVVNGEFKELSLDDFKGKYLVLFFYPLDFTFVCPTEIVAFSDKANEFHDVNCEVVAVSVDSHFSHLAWINTPRKNGGLGHMNITLLSDITKQISRDYGVLLESAGIALRGLFIIDPNGVVKHLSVNDLPVGRSVEETLRLVKAFQFVETHGEVCPANWTPESPTIKPSPTASKEYFEKVHQ

- binding result: no binding
B6: Ociad2_IPI:IPI00112139.1 (other, mouse, UniProt Q9D8W7 1-154, looked up)
chain: MASVSTHGNQEKSPHLPPLSKQSLLFCPKSKLHIHRGEIAKIIRECQEESFWKRALPFSLISMLVTQGLVHQGYLAANPRFGSLPKVALAGLLGFGLGKASYIRVCQSKFHSFEDQLRGAGFGPEHNRHCLLTCEDCKTRRGLSEKAGSQPSAS
